The values below come from patent publication US20220251151A1.

Assay in all cases: cell-based or functional assay
The target in assay [1] is human Kv1.3 potassium channel (potassium voltage-gated channel subfamily A member 3, α-subunit) (human) (UniProt P22001).
For assay [2], the target named is human Kv1.2 potassium channel (α-subunit) (human) (UniProt P16389).
Assay [3] has as its target human Kv1.1 potassium channel (α-subunit) (human) (UniProt Q09470).
For assay [4], the target named is human Kv1.6 potassium channel (α-subunit) (human) (UniProt P17658).
Sequence of human Kv1.6 potassium channel (α-subunit) (human) (P17658 whole entry): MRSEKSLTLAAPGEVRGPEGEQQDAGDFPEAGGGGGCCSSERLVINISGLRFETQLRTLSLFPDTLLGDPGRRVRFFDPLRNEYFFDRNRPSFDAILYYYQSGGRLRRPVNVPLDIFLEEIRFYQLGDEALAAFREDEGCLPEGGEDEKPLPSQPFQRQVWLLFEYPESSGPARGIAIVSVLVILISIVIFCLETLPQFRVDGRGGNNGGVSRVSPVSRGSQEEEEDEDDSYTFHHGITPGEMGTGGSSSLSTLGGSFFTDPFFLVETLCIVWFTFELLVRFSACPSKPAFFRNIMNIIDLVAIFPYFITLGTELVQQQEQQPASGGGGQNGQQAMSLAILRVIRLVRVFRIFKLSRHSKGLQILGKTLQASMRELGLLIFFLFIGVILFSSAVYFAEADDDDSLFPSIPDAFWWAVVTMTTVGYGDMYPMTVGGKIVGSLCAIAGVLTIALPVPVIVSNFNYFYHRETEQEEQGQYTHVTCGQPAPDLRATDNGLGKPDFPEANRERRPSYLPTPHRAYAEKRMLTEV

Sequence of human Kv1.1 potassium channel (α-subunit) (human) (Q09470 whole entry): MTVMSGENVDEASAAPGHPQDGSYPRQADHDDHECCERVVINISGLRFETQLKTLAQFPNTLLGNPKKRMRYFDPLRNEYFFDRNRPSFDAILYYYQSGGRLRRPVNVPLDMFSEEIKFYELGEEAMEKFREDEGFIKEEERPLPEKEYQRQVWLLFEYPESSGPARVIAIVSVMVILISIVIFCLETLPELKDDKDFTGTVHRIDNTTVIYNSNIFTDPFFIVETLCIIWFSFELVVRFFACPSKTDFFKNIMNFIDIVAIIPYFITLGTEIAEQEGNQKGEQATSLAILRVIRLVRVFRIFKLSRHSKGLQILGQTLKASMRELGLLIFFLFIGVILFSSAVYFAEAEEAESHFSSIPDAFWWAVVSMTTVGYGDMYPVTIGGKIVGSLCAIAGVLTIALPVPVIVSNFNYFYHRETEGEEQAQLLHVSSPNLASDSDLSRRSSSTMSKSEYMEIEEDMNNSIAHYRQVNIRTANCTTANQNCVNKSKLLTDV
Sequence of human Kv1.3 potassium channel (potassium voltage-gated channel subfamily A member 3, α-subunit) (human) (P22001 whole entry): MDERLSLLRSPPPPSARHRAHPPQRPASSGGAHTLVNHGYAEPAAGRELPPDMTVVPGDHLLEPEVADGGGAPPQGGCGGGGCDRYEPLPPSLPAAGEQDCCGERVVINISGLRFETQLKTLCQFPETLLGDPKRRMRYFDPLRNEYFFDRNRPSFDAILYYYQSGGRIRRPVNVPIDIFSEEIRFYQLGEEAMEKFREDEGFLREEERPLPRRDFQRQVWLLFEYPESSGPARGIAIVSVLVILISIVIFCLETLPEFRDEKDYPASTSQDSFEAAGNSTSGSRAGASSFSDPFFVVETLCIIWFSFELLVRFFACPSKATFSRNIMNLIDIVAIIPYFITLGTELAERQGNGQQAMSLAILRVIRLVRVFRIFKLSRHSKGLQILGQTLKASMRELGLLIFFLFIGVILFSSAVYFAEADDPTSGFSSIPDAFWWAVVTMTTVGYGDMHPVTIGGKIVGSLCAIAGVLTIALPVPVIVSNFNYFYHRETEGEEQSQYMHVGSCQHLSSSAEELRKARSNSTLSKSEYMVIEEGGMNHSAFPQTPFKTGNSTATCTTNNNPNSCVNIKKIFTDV
Sequence of human Kv1.2 potassium channel (α-subunit) (human) (P16389 whole entry): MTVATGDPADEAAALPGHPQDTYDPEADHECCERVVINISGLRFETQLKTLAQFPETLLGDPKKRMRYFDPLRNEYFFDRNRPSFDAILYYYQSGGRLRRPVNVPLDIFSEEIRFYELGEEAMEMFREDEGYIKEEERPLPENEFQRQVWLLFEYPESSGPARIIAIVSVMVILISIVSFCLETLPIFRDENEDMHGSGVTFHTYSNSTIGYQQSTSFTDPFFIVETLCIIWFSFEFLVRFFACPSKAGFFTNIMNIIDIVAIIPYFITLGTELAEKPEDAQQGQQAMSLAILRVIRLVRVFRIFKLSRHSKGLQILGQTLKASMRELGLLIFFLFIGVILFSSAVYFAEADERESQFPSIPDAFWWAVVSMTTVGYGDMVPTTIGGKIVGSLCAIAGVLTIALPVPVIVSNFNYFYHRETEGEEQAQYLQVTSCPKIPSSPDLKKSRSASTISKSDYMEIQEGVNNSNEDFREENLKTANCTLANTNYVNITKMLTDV

Substance Moka1 (peptide) had a Potency IC50 (patch clamp) in assay [1] of 9 nM. Moreover, in assay [2], the Potency IC50 (patch clamp) was determined as 275 nM and the Selectivity Kv1.2/Kv1.3 is 31. Moreover, in assay [3], the Potency IC50 (patch clamp) is more than 3000 nM and the Selectivity Kv1.1/Kv1.3 is more than 300. In assay [4], the Potency IC50 (patch clamp) was more than 3000 nM and the Selectivity Kv1.6/Kv1.3 is more than 300.

For the substance ShK (peptide), the Potency IC50 (patch clamp) was 0.017 nM in assay [1], 11 nM in assay [2] and 0.19 nM in assay [4].

As for Vm24 (peptide), the Potency IC50 (patch clamp) in assay [1] was determined as 0.15 nM. Also, in assay [2], the Potency IC50 (patch clamp) was 4.7 nM and the Selectivity Kv1.2/Kv1.3 was 31. In assay [3], this substance yielded a Potency IC50 (patch clamp) of 0.097 nM and a Selectivity Kv1.1/Kv1.3 of 0.65. In assay [4], this substance returned a Potency IC50 (patch clamp) of 21 nM and a Selectivity Kv1.6/Kv1.3 of 139.
